In US20200062863A1 (CSL BEHRING, published 2020):

T1: human Factor XIIa-beta (human, UniProt P00748 354-615, limits assumed)
T1 construct: Bought from Enzyme Research Laboratories; also called FXIIa beta; FXIIa-beta
T1 sequence: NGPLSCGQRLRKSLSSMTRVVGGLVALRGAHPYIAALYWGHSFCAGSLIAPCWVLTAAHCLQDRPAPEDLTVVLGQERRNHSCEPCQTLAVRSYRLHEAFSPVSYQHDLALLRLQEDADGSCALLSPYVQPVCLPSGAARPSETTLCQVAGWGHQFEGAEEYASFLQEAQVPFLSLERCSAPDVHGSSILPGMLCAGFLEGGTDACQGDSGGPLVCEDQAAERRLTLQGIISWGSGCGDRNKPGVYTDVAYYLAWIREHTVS

T2: human Factor XIIa-alpha (human, UniProt P00748 20-615)
T2 sequence: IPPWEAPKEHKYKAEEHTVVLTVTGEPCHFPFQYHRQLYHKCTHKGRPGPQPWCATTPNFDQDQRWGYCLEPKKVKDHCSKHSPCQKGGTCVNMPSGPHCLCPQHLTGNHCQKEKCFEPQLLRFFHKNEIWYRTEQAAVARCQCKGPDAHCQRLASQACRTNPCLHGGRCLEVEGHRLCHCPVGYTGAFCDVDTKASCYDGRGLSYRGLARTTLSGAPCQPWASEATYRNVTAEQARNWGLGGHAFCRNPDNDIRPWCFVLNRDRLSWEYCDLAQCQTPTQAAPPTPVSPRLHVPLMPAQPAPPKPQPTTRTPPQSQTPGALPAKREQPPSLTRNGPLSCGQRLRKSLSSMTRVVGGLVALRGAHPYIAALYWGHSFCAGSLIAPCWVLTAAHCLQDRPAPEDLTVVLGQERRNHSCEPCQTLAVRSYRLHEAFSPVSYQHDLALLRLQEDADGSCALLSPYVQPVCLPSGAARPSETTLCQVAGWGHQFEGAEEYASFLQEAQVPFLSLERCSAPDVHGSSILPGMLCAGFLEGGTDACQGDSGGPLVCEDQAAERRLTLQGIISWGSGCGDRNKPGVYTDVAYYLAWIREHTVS


Tests used:
[1] = biological target: T1, human Factor XIIa-beta; experiment: SPR (Biacore), KD against parental 3F7
[2] = biological target: T1, human Factor XIIa-beta; experiment: SPR (Biacore A100), unpurified IgG4 supernatant captured on anti-human IgG, single FXIIa beta concentration (100 nM), 37 C, 1:1 fit; estimated
Procedure: Anti-human (Goat anti-human IgG (gamma) mouse adsorbed, Invitrogen, Cat No. H10500) was chemically immobilised on a CM-5 sensor surface using amine coupling chemistry. Culture supernatants were diluted 1/60 with running buffer before capture. Antibodies were captured for 180 seconds representing an average capture of 800 response units (RU). FXIIa beta was then injected at zero and 100 nM for 180 seconds, and dissociated for 180 seconds. All assays were conducted on a Biacore A100 instrument at 37 degrees Celsius and the data fitted to a 1:1 kinetic model.

[3] = biological target: T2, human Factor XIIa-alpha; experiment: cell-based or functional assay
[4] = biological target: T1, human Factor XIIa-beta; experiment: SPR (Biacore), purified IgG4 captured on anti-human IgG, FXIIa beta 0-40 nM, 1:1 fit, 25 C

Binder	Fold affinity improvement [1]	Kd [2]	% Inhibition, ratio FXIIa-alpha:Antibody 1:0.1 [3]	% Inhibition, ratio FXIIa-alpha:Antibody 1:0.2 [3]	% Inhibition, ratio FXIIa-alpha:Antibody 1:0.5 [3]	% Inhibition, ratio FXIIa-alpha:Antibody 1:1 [3]	% Inhibition, ratio FXIIa-alpha:Antibody 1:2 [3]	% Inhibition, ratio FXIIa-alpha:Antibody 1:5 [3]	% Inhibition, ratio FXIIa-alpha:Antibody 1:10 [3]	Kd [4]	koff [4]	kon [4]
VR110 (antibody, V domains shown) VH: EVQLLESGGGLVQPGGSLRLSCAASGFTFSKYIMQWVRQAPGKGLEWVSGIDMPTKGTVYADSVKGRFTISRDNSKNTLYLQMNSLRAEDTAVYYCARALPRSGYLISPHYYYYALDVWGQGTTVTVSS VL: QSELTQPPSASGTPGQRVTISCSGSSSNIGRNYVYWYQQVPGTAPKLLIYSNNQRPSGVPDRFSGSKSGTSASLVISGLRSEDEADYYCAAWDASLRGVFGGGTKLTVLG	25 fold	2.04 nM	33.7%	66.9%	100%	100%	100%	100%	100%	0.35 nM	3.9e-05 s⁻¹	110000 M⁻¹ s⁻¹
VR24 (antibody, V domains shown) VH: EVQLLESGGGLVQPGGSLRLSCAASGFTFSKYIMQWVRQAPGKGLEWVSGIRPSGGTTVYADSVKGRFTISRDNSKNTLYLQMNSLRAEDTAVYYCARALPRSGYLISPHYYYYALDVWGQGTTVTVSS VL: QSVLTQPPSASGTPGQRVTISCSGSSEMTVHHYVYWYQQLPGTAPKLLIYSNNQRPSGVPDRFSGSKSGTSASLAISGLRSEDEADYYCAAWDASLRGVFGGGTKLTVLG	33 fold	1.63 nM	34.5%	67.3%	99.7%	100%	100%	100%	100%	0.26 nM	6.4e-05 s⁻¹	240000 M⁻¹ s⁻¹
VR115 (antibody, V domains shown) VH: EVQLLESGGGLVQPGGSLRLSCAASGFTFSKYIMQWVRQAPGKGLEWVSGIDIPTKGTVYADSVKGRFTISRDNSKNTLYLQMNSLRAEDTAVYYCARALPRSGYLISPHYYYYALDVWGQGTTVTVSS VL: QSELTQPPSASGTPGQRVTISCSGSSSNIGRNYVYWYQQVPGTAPKLLIYSNNQRPSGVPDRFSGSKSGTSASLVISGLRSEDEADYYCAAWDASLRGVFGGGTKLTVLG	57 fold	1.56 nM	39.4%	72.8%	100%	100%	100%	100%	100%	0.15 nM	2.5e-05 s⁻¹	170000 M⁻¹ s⁻¹
VR119 (antibody, V domains shown) VH: EVQLLESGGGLVQPGGSLRLSCAASGFTFSKYIMQWVRQAPGKGLEWVSGINVPLYGTVYADSVKGRFTISRDNSKNTLYLQMNSLRAEDTAVYYCARALPRSGYLISPHYYYYALDVWGQGTTVTVSS VL: QSELTQPPSASGTPGQRVTISCSGSSSNIGRNYVYWYQQVPGTAPKLLIYSNNQRPSGVPDRFSGSKSGTSASLVISGLRSEDEADYYCAAWDASLRGVFGGGTKLTVLG	24 fold	1.31 nM	–	–	–	–	–	–	–	0.36 nM	5.9e-05 s⁻¹	160000 M⁻¹ s⁻¹
VR112 (antibody, V domains shown) VH: EVQLLESGGGLVQPGGSLRLSCAASGFTFSKYIMQWVRQAPGKGLEWVSGINVPVQGTVYADSVKGRFTISRDNSKNTLYLQMNSLRAEDTAVYYCARALPRSGYLISPHYYYYALDVWGQGTTVTVSS VL: QSELTQPPSASGTPGQRVTISCSGSSSNIGRNYVYWYQQVPGTAPKLLIYSNNQRPSGVPDRFSGSKSGTSASLVISGLRSEDEADYYCAAWDASLRGVFGGGTKLTVLG	51 fold	1.52 nM	39.9%	68.7%	99.7%	100%	100%	100%	100%	0.17 nM	4.3e-05 s⁻¹	250000 M⁻¹ s⁻¹
